Data taken from patent US20160208004A1.
Changes are numbered by the printed parent chain. One block for each binder: values may come before it.

Biological target: human IL-17RA (human) (UniProt Q96F46)
Assay: cell-based or functional assay

% Inhib. of IL-5 production, TSLP treated human PBMC + IL-2 + IL-25, Expt. 1: 68%
% Inhib. of IL-5 production, TSLP treated human PBMC + IL-2 + IL-25, Expt. 2: 76%
% Inhibition of IL-5 production, TSLP treated human PBMC + IL-2 + IL-25; inhibitor 0.1 micrograms/mL: 12%
% Inhibition of IL-5 production, TSLP treated human PBMC + IL-2 + IL-25; inhibitor 1.0 micrograms/mL: 54%
B1: 3.1404 (antibody, from a related filing, V domains shown)
VH: QVQLVQSGAEVKKPGASVKVSCKASGYTFTRYGISWVRQAPGQGLEWMGWISTYSGNTNYAQKLQGRVTMTTDTSTSTAYMELRSLRSDDTAVYYCARRQLYFDYWGQGTLVTVSS
VL: EIVMTQSPATLSVSPGERATLSCRASQSVSSNLAWFQQKPGQAPRPLIYDASTRATGVPARFSGSGSGTDFTLTISSLQSEDFAVYYCQQYDNWPLTFGGGTKVEIK

% Inhib. of IL-5 production, TSLP treated human PBMC + IL-2 + IL-25, Expt. 1: 90%
% Inhib. of IL-5 production, TSLP treated human PBMC + IL-2 + IL-25, Expt. 2: 75%
% Inhibition of IL-5 production, TSLP treated human PBMC + IL-2 + IL-25; inhibitor 10 micrograms/mL: 100%
B2: 3.381 (antibody, from a related filing, V domains shown)
VH: B1 VH with T53A
VL: B1 VL with A19V, T56A, V58I
